Substitutions are numbered along the chain they refer to.
B1: BEW-6C2-C8 (antibody, IgG2b, V domains shown)
VH: EVQLVESGGGLVQPGSSLKLSCAASGFTFSYYGMHWIRQAPKKGLEWMALIYYDSSKMYYADSVKGRFTISRDNSKNTLYLEMNSLRSEDTAMYYCAAGGTAPVYWGQGVMVTVSS
VL: NIQLTQSPSLLSASVGDRVTLSCKGSQNIANYLAWYQQKLGEAPKLLIYNTDSLQTGIPSRFSGSGSGTDYTLTISSLQPEDVATYFCYQSNNGYTFGAGTKLELR
notes: Rat hybridoma antibody, isotype IgG2b/kappa
B2: BEW-8E6-E4 (antibody, IgG2a, V domains shown)
VH: QIQLVQSGPELKKPGESVKISCKASGYTFTDYAMHWVKQAPGKVLKWMGWINTFTGKPTYIDDFKGRFVFSLEASASTANLQISDLKNEDTATYFCARGNYYSGYWYFDFWGPGTMVTMSS
VL: DIQMTQSPASLSASLGETISIECRASEDISSNLAWYQQKSGKSPQLLIFAANRLQDGVPSRFSGSGSGTQFSLKISGMQPEDEGDYFCLQGSKFYTFGAGTKLELK
notes: Rat hybridoma antibody, isotype IgG2a/kappa
B3: BEW-9A8-E2 (antibody, IgG2a, V domains shown)
VH: QIQLVQSGPELKKPGESVKISCKASGYTFTNYGMYWVKQAPGQGLQYMGWINTETGKPIYADDFKGRFVFFLETSASTAYLQINNLKNEDMATFFCARVDYDGSFWFAYWGQGTLVTVSS
VL: DTVLTQSPALAVSPGERVSISCRASESVSTVIHWYQQKPGQQPKLLIHGASNLESGVPARFSGSGSGTDFTLTIDPVEADDTATYFCQQHWNDPPTFGAGTKLEMK
notes: as for B2
B4: BEW-10H2-B9 (antibody, IgG2b, V domains shown)
VH: QIQLVQSGPELKKPGESVKISCKASGYSFTNFGLYWVKQAPGQGLQYMGWIDTETGKPTYADDFRGRFVFFLETSASTAYLQINNLKNEDMATYFCARVYGYPSWYFDFWGPGTMVTVSS
VL: DIQMTQSPASLSTSLEEIVTITCQASQDIDNYLSWYQQKPGKSPQLLIHSATSLADGVPSRFSGSRSGTQFSLKIHRLQVEDTGIYYCLQHFFPPWTFGGGTKLELK
notes: as for B1
B5: BEW-9E3-B9 (antibody, IgG2a, V domains shown)
VH: QIQLVQSGPELKKPGESVKISCKASGYTFTNYGMYWVKQAPGQGLQYMGWINTETGKPTYADDFKGRFVFFLETSASTAFLQINNLKNEDMATYFCARPSDYYDGFWFPYWGQGALVTVSS
VL: DTILTQSPALAVSPGERISISCRASEGVNSYMHWYQQNPGQQPKLLIYKASNLASGVPARFSGSGSGTDFTLTIDPVEADDTATYFCQQSWNDPLTFGSGTKLEIK
notes: as for B2
B6: 4G8.3-GS-9E8.4 anti-VEGF-A/anti-PDGF-BB DVD-Ig (PR-1564010) (bispecific antibody, human IgG1, kappa, L234A L235A)
heavy: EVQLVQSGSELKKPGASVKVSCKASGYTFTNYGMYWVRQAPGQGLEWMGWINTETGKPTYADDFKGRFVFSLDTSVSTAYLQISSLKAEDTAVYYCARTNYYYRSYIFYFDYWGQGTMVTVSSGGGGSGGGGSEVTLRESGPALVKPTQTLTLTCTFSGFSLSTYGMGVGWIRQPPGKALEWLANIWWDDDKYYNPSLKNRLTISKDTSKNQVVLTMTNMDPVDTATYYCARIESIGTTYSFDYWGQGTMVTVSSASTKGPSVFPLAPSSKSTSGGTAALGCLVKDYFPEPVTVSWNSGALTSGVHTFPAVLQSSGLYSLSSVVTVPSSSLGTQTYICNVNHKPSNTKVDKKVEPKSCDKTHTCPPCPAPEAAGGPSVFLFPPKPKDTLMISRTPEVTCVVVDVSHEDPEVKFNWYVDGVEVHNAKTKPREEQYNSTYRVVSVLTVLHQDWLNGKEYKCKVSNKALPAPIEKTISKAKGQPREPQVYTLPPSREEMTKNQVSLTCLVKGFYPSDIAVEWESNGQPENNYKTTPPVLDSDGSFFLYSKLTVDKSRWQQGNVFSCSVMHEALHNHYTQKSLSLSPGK
light: DTVLTQSPATLSLSPGERATLSCRASESVSTHMHWYQQKPGQAPRLLIYGASNLESGVPARFSGSGSGTDFTLTISSLEPEDFAVYFCQQSWNDPFTFGQGTKLEIKRGGSGGGGSGEFVLTQSPGTLSLSPGERATLSCERSSGDIGDSYVSWYQQKPGQAPRLVIYADDQRPSGIPDRFSGSGSGTDFTLTISRLEPEDFAVYYCQSYDINIDIVFGGGTKVEIKGTVAAPSVFIFPPSDEQLKSGTASVVCLLNNFYPREAKVQWKVDNALQSGNSQESVTEQDSKDSTYSLSSTLTLSKADYEKHKVYACEVTHQGLSSPVTKSFNRGEC
B7: 4G8.3-SL-9E8.4 anti-VEGF-A/anti-PDGF-BB DVD-Ig (PR-1564012) (bispecific antibody, human IgG1, kappa, L234A L235A)
heavy: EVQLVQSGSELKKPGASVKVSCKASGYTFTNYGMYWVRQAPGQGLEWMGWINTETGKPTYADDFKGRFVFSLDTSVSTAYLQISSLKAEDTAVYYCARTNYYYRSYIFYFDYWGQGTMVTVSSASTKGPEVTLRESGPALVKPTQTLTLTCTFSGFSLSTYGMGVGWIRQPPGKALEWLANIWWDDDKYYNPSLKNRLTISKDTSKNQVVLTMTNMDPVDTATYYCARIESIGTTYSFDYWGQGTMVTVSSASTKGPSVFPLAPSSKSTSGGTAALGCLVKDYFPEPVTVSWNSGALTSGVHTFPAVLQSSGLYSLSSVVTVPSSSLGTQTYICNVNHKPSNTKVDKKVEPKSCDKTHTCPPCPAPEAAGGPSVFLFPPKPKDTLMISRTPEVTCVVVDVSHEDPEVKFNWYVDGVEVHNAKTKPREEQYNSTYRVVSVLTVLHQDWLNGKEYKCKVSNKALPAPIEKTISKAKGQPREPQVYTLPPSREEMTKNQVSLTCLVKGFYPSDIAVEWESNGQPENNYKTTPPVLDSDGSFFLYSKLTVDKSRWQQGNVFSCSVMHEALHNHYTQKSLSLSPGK
light: DTVLTQSPATLSLSPGERATLSCRASESVSTHMHWYQQKPGQAPRLLIYGASNLESGVPARFSGSGSGTDFTLTISSLEPEDFAVYFCQQSWNDPFTFGQGTKLEIKRTVAAPSVFIFPPEFVLTQSPGTLSLSPGERATLSCERSSGDIGDSYVSWYQQKPGQAPRLVIYADDQRPSGIPDRFSGSGSGTDFTLTISRLEPEDFAVYYCQSYDINIDIVFGGGTKVEIKGTVAAPSVFIFPPSDEQLKSGTASVVCLLNNFYPREAKVQWKVDNALQSGNSQESVTEQDSKDSTYSLSSTLTLSKADYEKHKVYACEVTHQGLSSPVTKSFNRGEC
B8: 4G8.3-LS-9E8.4 anti-VEGF-A/anti-PDGF-BB DVD-Ig (PR-1564013) (bispecific antibody, human IgG1, kappa, L234A L235A)
heavy: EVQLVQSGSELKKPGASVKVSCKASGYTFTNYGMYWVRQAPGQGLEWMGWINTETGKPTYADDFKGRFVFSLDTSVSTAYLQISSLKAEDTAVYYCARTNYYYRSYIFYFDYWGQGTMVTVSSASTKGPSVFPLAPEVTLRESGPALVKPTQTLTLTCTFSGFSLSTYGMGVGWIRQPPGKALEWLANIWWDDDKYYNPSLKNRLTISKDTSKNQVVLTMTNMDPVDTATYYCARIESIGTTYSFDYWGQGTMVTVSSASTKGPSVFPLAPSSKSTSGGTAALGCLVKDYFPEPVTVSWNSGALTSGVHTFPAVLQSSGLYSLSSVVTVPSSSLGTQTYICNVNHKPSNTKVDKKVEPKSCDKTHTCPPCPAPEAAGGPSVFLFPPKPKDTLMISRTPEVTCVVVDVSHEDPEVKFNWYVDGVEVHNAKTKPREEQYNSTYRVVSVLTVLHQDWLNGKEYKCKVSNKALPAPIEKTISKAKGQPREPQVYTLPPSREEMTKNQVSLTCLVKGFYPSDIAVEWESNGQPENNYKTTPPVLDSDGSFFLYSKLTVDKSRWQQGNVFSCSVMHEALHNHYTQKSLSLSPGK
light: DTVLTQSPATLSLSPGERATLSCRASESVSTHMHWYQQKPGQAPRLLIYGASNLESGVPARFSGSGSGTDFTLTISSLEPEDFAVYFCQQSWNDPFTFGQGTKLEIKRTVAAPEFVLTQSPGTLSLSPGERATLSCERSSGDIGDSYVSWYQQKPGQAPRLVIYADDQRPSGIPDRFSGSGSGTDFTLTISRLEPEDFAVYYCQSYDINIDIVFGGGTKVEIKGTVAAPSVFIFPPSDEQLKSGTASVVCLLNNFYPREAKVQWKVDNALQSGNSQESVTEQDSKDSTYSLSSTLTLSKADYEKHKVYACEVTHQGLSSPVTKSFNRGEC
B9: 9E8.4-GS-4G8.3 DVD-Ig (PR-1563988) (bispecific antibody, human IgG1, kappa, L234A L235A)
heavy: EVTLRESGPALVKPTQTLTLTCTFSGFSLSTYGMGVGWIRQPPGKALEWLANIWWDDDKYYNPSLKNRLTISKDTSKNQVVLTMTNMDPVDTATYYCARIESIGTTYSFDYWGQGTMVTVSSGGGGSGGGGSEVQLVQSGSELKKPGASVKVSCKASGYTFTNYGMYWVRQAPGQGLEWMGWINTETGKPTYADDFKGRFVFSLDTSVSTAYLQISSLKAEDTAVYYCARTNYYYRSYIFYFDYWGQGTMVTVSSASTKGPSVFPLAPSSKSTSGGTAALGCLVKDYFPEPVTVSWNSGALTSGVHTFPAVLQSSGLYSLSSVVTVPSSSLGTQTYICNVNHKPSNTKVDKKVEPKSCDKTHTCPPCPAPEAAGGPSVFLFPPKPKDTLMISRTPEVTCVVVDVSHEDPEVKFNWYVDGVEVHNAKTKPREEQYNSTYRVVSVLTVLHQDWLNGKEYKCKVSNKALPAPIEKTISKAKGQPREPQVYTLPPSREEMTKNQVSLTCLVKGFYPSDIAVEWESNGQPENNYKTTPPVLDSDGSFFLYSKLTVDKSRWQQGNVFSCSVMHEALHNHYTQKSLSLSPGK
light: EFVLTQSPGTLSLSPGERATLSCERSSGDIGDSYVSWYQQKPGQAPRLVIYADDQRPSGIPDRFSGSGSGTDFTLTISRLEPEDFAVYYCQSYDINIDIVFGGGTKVEIKGGGSGGGGSGDTVLTQSPATLSLSPGERATLSCRASESVSTHMHWYQQKPGQAPRLLIYGASNLESGVPARFSGSGSGTDFTLTISSLEPEDFAVYFCQQSWNDPFTFGQGTKLEIKRTVAAPSVFIFPPSDEQLKSGTASVVCLLNNFYPREAKVQWKVDNALQSGNSQESVTEQDSKDSTYSLSSTLTLSKADYEKHKVYACEVTHQGLSSPVTKSFNRGEC
B10: hBEW-1E3.1 (antibody, V domains shown)
VH: EIQLVQSGSELKKPGASVKVSCKASGYPFTNSGMYWVKQAPGQGLEYMGWINTEAGKPTYADDFKGRFVFSLDTSVSTAYLQISSLKAEDTAVYFCARWGYISDNSYGWFDYWGQGTLVTVSS
VL: ETVLTQSPATLSLSPGERATLSCRASEGVYSYMHWYQQKPGQQPRLLIYKASNLASGVPARFSGSGSGTDFTLTISSLEPEDFAVYFCHQNWNDPLTFGQGTKLEIK
notes: Humanized IgG
B11: hBEW-1E3.2 (antibody, V domains shown)
VH: B10 VH with S9A, L11V, V69T, S71T, V76T, Q82E, S84R, K87R, A88S, E89D
VL: B10 VL
notes: Humanized IgG
B12: hBEW-1E3.4 (antibody, V domains shown)
VH: B10 VH
VL: ATQLTQSPSSLSASVGDRVTISCRASEGVYSYMHWYQQKPGKQPKLLIYKASNLASGVPSRFSGSGSGTDFTLTISSLQPEDFATYFCHQNWNDPLTFGQGTKLEIK
notes: Humanized IgG
B13: hBEW-1E3.5 (antibody, V domains shown)
VH: B10 VH with S9A, L11V, V69T, S71T, V76T, Q82E, S84R, K87R, A88S, E89D
VL: B12 VL
notes: Humanized IgG

biological target: T1, Human VEGF-A 165 (human, UniProt P15692 207-395); test: receptor competition ELISA, hVEGF165 binding to coated hVEGF-R2-Fc
T1 construct: Recombinant; also called huVEGF-A165; hVEGF165
Protocol: To identify molecules that could block the binding of hVEGF₁₆₅ to the hVEGF-R2 (KDR/Flk-1) receptor, a competition ELISA was performed. […] Plates were then washed four times with wash buffer (TBS, 0.05% Tween-20) and blocked with Superblock blocking buffer (Thermo Scientific, cat#37535). […] The pre-incubated sample/hVEGF₁₆₅ complex was added to the coated plate at 50 μL in duplicate and incubated for 30 minutes at 25° C. with shaking. Following incubation, plates were washed four times with wash buffer. Streptavidin-polyHRP-40 (Fitzgerald cal#65r-s104phrp) was diluted in assay diluent (10% Superblock containing 0.05% surfactamps) and added to plates (50 μL) for 45 minutes at 25° C. with shaking. Plates were washed four times with wash buffer and developed with the addition of Enhanced K-blue TMB substrate (Neogen cat#308177). The reaction was stopped with 2N sulfuric acid (VWR, cat# BDH3500-1) and the absorbance was read at 450 nm-570 nm. A decrease in observed optical density indicates the test molecule is blocking the hVEGF₁₆₅ binding to the hVEGF-R2-Fc. Data was analyzed using Softmax Pro 4.8 software and IC₅₀ values calculated using a sigmoidal dose response (variable slope) fit in GraphPad Prism 5.
Anti-VEGF-A antibodies derived from rat hybridomas were characterized for binding, function and cross-reactivity in a panel of assays. Supernatants were tested for the ability to bind hVEGF₁₆₅ (Example 1.3) and block binding of hVEGF₁₆₅ to hVEGFR2 in a competition ELISA format (Example 1.4).
T1 sequence (P15692 other isoform, or with tags, fused parts or gaps limits assumed): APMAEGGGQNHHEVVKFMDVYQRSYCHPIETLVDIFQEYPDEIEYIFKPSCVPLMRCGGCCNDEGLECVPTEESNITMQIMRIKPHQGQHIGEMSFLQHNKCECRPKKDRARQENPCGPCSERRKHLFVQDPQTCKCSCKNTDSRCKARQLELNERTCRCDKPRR

Binder | IC50
B1 | 0.197 nM
B2 | 0.342 nM
B3 | 0.249 nM
B4 | 0.42 nM
B5 | 0.124 nM

biological target: recombinant rat PDGF-BB (rat, UniProt Q05028 74-182); test: cell-based or functional assay
Sequence (Q05028 74-182 limits assumed): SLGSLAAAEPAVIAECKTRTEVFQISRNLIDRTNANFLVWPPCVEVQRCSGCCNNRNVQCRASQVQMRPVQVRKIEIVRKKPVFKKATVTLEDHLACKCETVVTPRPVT

Binder | Potency IC50 (nM) ratPDGF-BB (NIH-3T3 proliferation)
B6 | 1.36 nM
B7 | 0.65 nM
B8 | 0.21 nM

biological target: recombinant murine PDGF-BB (mouse, UniProt P31240 82-190); test: cell-based or functional assay
Sequence (P31240 82-190 limits assumed): as the sequence (Q05028 74-182 limits assumed) above, with V83I, V102I counted along it

Binder | Potency IC50 (nM) mPDGF-BB (NIH-3T3 proliferation)
B6 | 0.44 nM
B7 | 0.29 nM
B8 | 0.11 nM

biological target: recombinant human VEGF165 (human, UniProt P15692 207-395); test: cell-based or functional assay
Sequence (P15692 other isoform, or with tags, fused parts or gaps limits assumed): as the sequence (P15692 other isoform, or with tags, fused parts or gaps limits assumed) above

Binder | HMVEC-d hVEGF165 Potency IC50
B9 | 2.64 nM

biological target: recombinant human PDGF-BB (human, UniProt P01127 82-190); test: cell-based or functional assay
Sequence (P01127 82-190 limits assumed): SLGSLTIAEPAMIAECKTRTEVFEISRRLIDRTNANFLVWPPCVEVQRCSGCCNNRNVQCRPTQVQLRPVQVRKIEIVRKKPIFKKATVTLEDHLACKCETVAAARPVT

Binder | NIH-3T3 hPDGF-BB Potency IC50
B9 | 0.076 nM

biological target: T2, Human VEGF-A 165 (human, UniProt P15692 207-395); test: SPR (Biacore), antibody captured via anti-human Fc, antigen in solution
T2 construct: Recombinant human VEGF165; also called hVEGF165; huVEGF-A165
Protocol: For example, approximately 9000 RU of goat anti-human Fc specific polyclonal antibody (Thermo Fisher Scientific Inc., Rockford, Ill.) diluted in 10 mM sodium acetate (pH 4.5) is directly immobilized across a CM5 research grade biosensor chip using a standard amine coupling kit according to manufacturer's instructions and procedures at 25 μg/ml. Unreacted moieties on the biosensor surface were blocked with ethanolamine. For kinetic analysis, rate equations derived from the 1:1 Langmuir binding model were fitted simultaneously to multiple antigen injections (using global fit analysis) with the use of Scrubber 2 (BioLogic Software), Biacore Biaevaluation 4.0.1 software or Biacore T100 Evaluation software. Purified antibodies or DVD-Ig molecules were diluted in running buffer for capture across goat anti-human Fc reaction surfaces. Antibodies or DVD-Ig molecules to be captured as a ligand (1 μg/ml) were injected over reaction matrices at a flow rate of 10 μl/minute. During the assay, all measurements were referenced against the capture surface alone (i.e., with no captured antibody or DVD-Ig molecule). […] The equilibrium dissociation constant KD (M) of the reaction between antibodies and the target antigen was then calculated from the kinetic rate constants by the following formula: KD=Koff/Kₒₙ. Binding was recorded as a function of time and kinetic rate constants were calculated.
T2 sequence (P15692 other isoform, or with tags, fused parts or gaps limits assumed): as the sequence (P15692 other isoform, or with tags, fused parts or gaps limits assumed) above

Binder | Kd | kon
B10 | 0.0077 nM | 1.1e+07 M⁻¹ s⁻¹
B11 | 0.0092 nM | 1.1e+07 M⁻¹ s⁻¹
B12 | 0.0097 nM | 9.8e+06 M⁻¹ s⁻¹
B13 | 0.01 nM | 1e+07 M⁻¹ s⁻¹

biological target: T2, Human VEGF-A 165; test: cell-based or functional assay

Binder | hVEGF165 IC50 (nM), HMVEC-d proliferation
B10 | 0.138 nM
B11 | 0.161 nM
B12 | 0.212 nM
B13 | 0.184 nM
